Source: US6663869B1, “Polyoxime compounds and their preparation” (Gryphon Therapeutics, Inc., priority 1993, dated 2003)
The star is where a group is joined. aminooxyacetyl = NOCC(=O)*

Key:
[1] = storage stability as a powder at −20° C.; format: physicochemical
Protocol: Solvent was removed by vacuum centrifugation (Speed-Vac; Savant Instruments) without heating. […] Similar methods were used to prepare octa-GXL-baseplate (SEQ ID NO: 9).
The hexa-AOA-baseplate product (SEQ ID NO: 5) eluted during the isocratic elution at 5% B. The product eluted as a single peak on analytical RP-HPLC. The mass was determined by ESI-MS to be 1325.49+/−0.38 daltons as compared to the calculated mass of 1325.4 daltons. […] The storage vial was kept tightly sealed and volatile aldehydes were excluded.
Following solvent removal by vacuum centrifugation, the AOA-TCTP sample (SEQ ID NO: 4) was characterized by ESI-MS. The molecular weight of the sample was determined to be 1542.57+/−1.14 daltons, as compared to the expected value of 1541.73 daltons. The reaction yielded 120 mg AOA-TCTP from 1.3 g. AOA-polypeptidyl resin.

[2] = tested on: mouse melanoma cells; conditions: even when modified at the alpha-amino group and when linked as a homodimer (Bagutti et al. 1992); cited from earlier work
[3] = format: physicochemical; conditions: pH 7
[4] = tested on: B16-F1 melanoma cells; assay: in situ melanin assay (Bagutti 1992); format: cell-based; conditions: relative to full-length hormone
Protocol: The biological activity of MSH can be measured, for example, with an in situ melanin assay in which the peptide is tested for stimulation of B16-F1 melanoma cells (Bagutti 1992).
The binding and potency of some alpha-melanocyte stimulating hormone analog polyoximes were determined. Relative binding in the binding assay using mouse melanoma cells (Bagutti (1992)) refers to the average dissociation constant (Kd) for full-length natural hormone divided by the Kd for our oxime analog. Relative potency in the melanin assay (Bagutti (1992)) refers to the ratio of the concentrations (giving 50% of maximum effect) of full-length hormone and that of analog. Results with the analog of alpha-MSH, Nle-Asp-His-(D)Phe-Arg-Trp-Lys-amide, are provided.

Substance	storage stability [1]	other results
NH2OCH2CO-ELGGGPGAGSLQPLALEGSLQKR-OH (aminooxyacetyl-ELGGGPGAGSLQPLALEGSLQKR-OH; SMILES CC(C)C[C@H](NC(=O)[C@H](C)NC(=O)[C@H](CC(C)C)NC(=O)[C@@H]1CCCN1C(=O)[C@H](CCC(N)=O)NC(=O)[C@H](CC(C)C)NC(=O)[C@H](CO)NC(=O)CNC(=O)[C@H](C)NC(=O)CNC(=O)[C@@H]1CCCN1C(=O)CNC(=O)CNC(=O)CNC(=O)[C@H](CC(C)C)NC(=O)[C@H](CCC(=O)O)NC(=O)CON)C(=O)N[C@@H](CCC(=O)O)C(=O)NCC(=O)N[C@@H](CO)C(=O)N[C@@H](CC(C)C)C(=O)N[C@@H](CCC(N)=O)C(=O)N[C@@H](CCCCN)C(=O)N[C@@H](CCCNC(=N)N)C(=O)O) [AOA-Pep C COSM]	stable for at least several months	
NH2OCH2CO-Lys-Leu-Glu-Glu-Gln-Arg-Pro-Glu-Arg-Val-Lys-Gly-OH (aminooxyacetyl-KLEEQRPERVKG-OH; SMILES CC(C)C[C@H](NC(=O)[C@H](CCCCN)NC(=O)CON)C(=O)N[C@@H](CCC(=O)O)C(=O)N[C@@H](CCC(=O)O)C(=O)N[C@@H](CCC(N)=O)C(=O)N[C@@H](CCCNC(=N)N)C(=O)N1CCC[C@H]1C(=O)N[C@@H](CCC(=O)O)C(=O)N[C@@H](CCCNC(=N)N)C(=O)N[C@H](C(=O)N[C@@H](CCCCN)C(=O)NCC(=O)O)C(C)C) [AOA-TCTP COSM]	stable for at least several months	
Nle-Asp-His-(D-Phe)-Arg-Trp-Lys		binding to melanoma cells [2]: binds to melanoma cells
OCH—CO-Gly3-[Lys(COCHO)]5-Gly-OH [hexa-GXL-baseplate]	stable for at least several weeks	
Ser-TCTP precursor COSM: TCTP 12-mer peptide with added N-terminal serine, SEQ ID NO: 2 (SKLEEQRPEVKG)	stable indefinitely	
acetyl-Asp-Cys-Thr-Leu-Ile-Asp-Ala-Leu-Leu-Gly-Asp-Pro-His-amide (XCTLIDALLGDPX; N-terminal acetyl, C-terminal amide)		oxidized to the disulfide dimer [3]: about 30%
control monooxime: aminooxyacetyl Nle-Asp-His-(D)Phe-Arg-Trp-Lys-amide oximated with acetaldehyde		relative potency (ratio of concentrations giving 50% of maximum effect of full-length hormone and analog) [4]: 1.78
